{"source": "paper PMC4571279", "about": "(Nature Communications, 2015)", "binders": {"B1": {"name": " (Fab, V domains shown)", "VH": "QVQLVQSGAEVKKPGSSVKVSCKASGGTFSSYAISWVRQAPGQGLEWMGGIIPILGTASYAQKFQGRVTITADKSTSTAYMELSSLRSEDTAVYYCARVGYCSSTSCNRGAFDIWGQGTMVTVSS", "VL": "DIQLTQSPSSLSASVGDRVTITCRASQGIRNDLGWYQQKPGKAPKLLIYAASSLQSGVPSRFSGSGSGTDFTLTISSLQPEDFATYYCQQLNSYPLTFGGGTKVEIK", "notes": "also called m336 F54L"}, "B2": {"name": " (Fab, V domains shown)", "VH": "B1 VH with L55F, K74E", "VL": "B1 VL", "notes": "also called m336 K73E"}}, "target": "T1, recombinant MERS-CoV S1 protein (MERS-CoV, isolate EMC/2012 (strain of …, UniProt K0BRG7))", "T1 construct": "source: bought: Sino Biological Inc", "assay": "ELISA", "settings": "both partners purified", "note": "Residue numbers refer to the chain shown, from its start. Numbers in names are those of the source."}
{"binder": "B1", "values": [{"measurement": "fold reduction (EC50) against wild-type m336", "value": "≥ 1000", "unit": "fold"}]}
{"binder": "B2", "values": [{"measurement": "fold reduction of binding affinity against m336", "value": "≥ 10", "unit": "fold"}]}
